In a protein production outcome set (Wang et al. 2014):

Assay: label from the status in PepcDB records

Row | Sequence | protein production
1 | MTKIIPVASGKGGVGKTSFVANVGYKLSSLGKTVILVDLDLGGSNLHTCLGVKNKGVGIGSFINKKSKSFSDLVCKTSYDKLYLIPGDALYTGTANLPFSIKKKIIESIQKDLIADFIFLDLGSGTSYNTIDFYLASYSGVIVTIPETPSILNAYSFLKNALYRLLYLGFPQKSPERDYIGNFFKDKIEGTNLGFKDLVVGIELISLSSSLKVKRMMNNFYPRVVLNRIETSEEIAMCENLINVVKNNINIPIEFIGFVPFAKSFREAINNRVPFIDFEKNSKLNKYFEFIAGNLIKSP | failed
2 | MTKIYFAGPLFSQADLRYNAYLVEQIRQLDKTIDLYLPQENAAINDKSAYADSKMIALADTENVLASDLLVALLDGPTIDAGVASEIGVAYAKGIPVVALYTDSRQQGADNHQKLDALNEIAENQFHYLNLYTVGLIKLNGRVVSSEEDLLEEIKQRLS | not failed
3 | MTKKLNPLEDPPTATSSDEDDVETSEAGEASDDSSSSEEDVPIKIRIKSPSATTAAAPPAKSTAVSTAADSDSGSETETDSDSESTNPPNSGSGKTIALNTVNLKKKEDPTSSSATLALPAMKSGTKRPASEAAATTSTKRVKKDEESVKKPGGFQRLWSEEDEILVLQGMIDFKADTGKSPYVDTNAFYDFLKKSISFEVSKNQFMDKIRSLRKKYIGKEGRNEPSFVKAHDKKAFELSKFIWGPKGIALDSNVKSNGVSKKSVAKKKIDSVKQELVFAGGSSTNGKKVEEDGGDDGCDWFDNSSLVRMIASLGVDEYYVKQQWSLVSVESKKIVEEKYKLLQAKELEFVLEKTKFLNEVASMFVEASKNKPLDT | failed
4 | MTKLALFVRLEAKPGQEAALADFLASALPLANAESGTTAWFALKFGPSTFGVFDAFADEAGRQAHLNGQIAAALMANAATLLSSPPNIEKVELLAAKLPA | not failed
5 | MTKNPRTLYEKIWDAHIVERREDGSALIYIDRHLVHEVTSPQAFEALRQAGRPLRRPDRTLAVPDHNVPTTARVDSEGHLLPIADPQSAKQLAALAKNAPEFGVRYISATDPEQGIVHVVGPEQGFTLPGTTLVCGDSHTAAHGALGALAFGIGTSEVEHVMATQTLILTPAKTMEVRVEGKLSPDVSAKDLILHIIHSLGTAGGTGYAIEYTGEAIRNLSIEERLTVSNMSIEAGARTGLIAADEKTFAYLFGRPMAPKGADWEKAVQWWKSLATDKGAVYDKTVIIKAEDVQPSVTWGTSPEDVVPITGVVPDPASFADPAKQAAARRSLEYMGLEPGQKMEGLAVENVFIGSCTNSRIEDLRAAASVVWGRHVADNVKQALVVPGSGLVKRQAEAEGLDEVFKAAGFEWREPGCSMCLAMNPDKVPAGERCASTSNRNFVGRQGPGARTHLVSPAMAAAAAVTGHLTDLRHLEPVKMGEKA | failed
6 | MTKQKSKPVEYHPFPQLVLTLDVRRSFTPTFLRQILQTRSFACVILYDSQGVQDDAVFLQKQAQIYAEDIQSNGAAFLISGERRVSERIKADGLHIEGDLKALEYCDYQKKEQKIIGFGNIRNRHCAMVAGEAGVDYLLFGKLGADKKPHAHPRNLQLARWWAEIMETPAIVQAGSDFATFDEVIKTACEFIAIEEVIFAHDNPLMLLKMMQEKCKNSPL | failed
7 | MTKRVTCSACDGFGAEGGETGMVSCNSCEGNGFILKNQRSIFGTVQSQMLCQSCGGQGKQALEHHHHHH | failed
8 | MTKSELIEQLCSKKPQLSAKQVEDTVKEILEQMATTLEGGDRIEIRGFGSFSLHYREPRLGRNPKTGDKVELDGKFVPHFKPGKELRERVNYS | failed
9 | MTKSVDTLLIPGPIILSGAVQKALDVPSLGHTSPEFVSIFQRVLKNTRAVFKSAAASKSQPFVLAGSGTLGWDIFASNFILSKAPNKNVLVVSTGTFSDRFADCLRSYGAQVDVVRPLKIGESVPLELITEKLSQNSYGAVTVTHVDTSTAVLSDLKAISQAIKQTSPETFFVVDAVCSIGCEEFEFDEWGVDFALTASQKAIGAPAGLSISLCSSRFMDYALNDSKNGHVHGYFSSLRRWTPIMENYEAGKGAYFATPPVQLINSLDVALKEILEEGLHKRWDLHREMSDWFKDSLVNGLQLTSVSRYPSNMSAHGLTAVYVADPPDVIAFLKSHGVVIAGGIHKDIGPKYIRIGHMGVTACNKNLPYMKNCFDLIKLALQRKK | not failed
10 | MTLFDGTPFEWAPGRIEVRARRECGASRKSLVVAAGVSYLARMIFSFDAFVTNALFDRSGRAMFALGDGTVRLQTDEGFVTVEAHGGPLGGAVLAAAVHPSGAGIVTGGDDGRVVWSRIEGGEVVATLIAEVKNKWIEHVAASAASGLIAFTVGKEVHVRDAADPAFARTFPHEKTVSGLAFEPKGRRLASATYGGAYLWYARIADQKPTVLKWAGSHIAVEFSPDGKFLISSMQENQLHGWRLSDGKDMRMGGYPSKIKSVAFFDKGNLLATAGASGAVIWPFAGANGPMGKEAAEIGFSRDSMVVRVAGIDPQPVCIAGQDSGKIWAAHMRNGRIETLKAEKGAPISALSVSADGKRLAWGDESGEAGVLEIPDLSGPRQFVGLEHHHHHH | failed
11 | MTLGTNQVSKTHSFMTVSLIELWERFGYYGMQALIVYFMVQRLGFDDSRANLVWSACAALIYVSPAIGGWVGDKILGTKRTMLLGAGILSVGYALMTVPTENTWFMFSALGVIVVGNGLFKPNAGNLVRKIYEGDDSKIDSAFTIYYMAVNVGSTFSMLLTPWIKDYVNAQYGNEFGWHAAFAVCCVGILVGLGNYALMHKSLANYGSEPDTRPVNKKSLAIVLALAALSVVASAIILEYEDVARVFVYAAGVAVLGIFFHLIRTSEPSERAGLIAALILTVQTVFFFIFYQQMSTSLALFALRNVDWDFQVFGTHLWTWSPAQFQALNPIWIMVLSPVLAWSYSWAGRNNKDFSIAAKFALGFAVVAIGFFIYGFAGQFAVNGKTSSWVMIWGYASYSLGELLVSGLGLAMIARYVPARMGGFMMGAYFVASGISQYLGGVVANFASVPQDLVDPLQTLPVYTNLFNKLGVAAVVCTIIALAVLPLMRRLTESHHAHSSIENNAAASLRDVKAEQ | failed
12 | MTLIRWNPWQDLNTLQRQLNHLFEEDMLPSTLLERTLTRVPAAELHETAEVIYLKLELPGIDAKDVDLQVTDKAVYISGERKSETKTEDKGVFKSEFQYGKFQRVIPLPARIQNTNVTAEYKDGILNLTLPKAEVEKNKVVKINIESAAGLEHHHHHH | not failed
13 | MTLKGTAERWGWMSQALHWLIAVLILGLGIGGLIMGKLPKTPNYFWVYTAHKSIGISVLALAVLRLFWRLYAGAPKPIAGTPVWQERVANATHIMLYVLIFTIPLAGWLYDSARGLRTFYWFGLFEMPALVSPNETIRGVALEIHKLSFWALIGLVVLHAGAAFHHHLIQRDATLARMLPRNWFSSKS | failed
14 | MTLKPTQQRLLLMLGWLHLQCGQPRRAQVLLEALLSVAPERRDGRRALLLALLQQGLGEPAVRLCRQLQEDGEEEPGLWRCLSRAEQLAGRLDAARAAHARALELEARELEHHHHHH | not failed
15 | MTLLQQIMWGSLYLGLCFVVEVLLLVWCTLVIVHLSIRLRHLSRAMRTAAVISVSLAFIVLAHTLQVWLWAGVWIWSDVLTDWNEALYFSLVTYTTLGYGDIVLGPGLRIFAAFAAVAGLLAFGLSTAYLVALMSRVFEGRLPR | failed
16 | MTLMVPFKQVDVFTEKPFMGNPVAVINFLEIDENEVSQEELQAIANWTNLSETTFLFKPSDKKYDYKLRIFTPRSELPFAGHPTIGSCKAFLEFTKNTTATSLVQECKIGAVPITINEGLISFKAPMADYESISSEMIADYEKAIGLKFIKPPALLHTGPEWIVALVEDAETCFNANPNFAMLAHQTKQNDHVGIILAGPKKEAAIKNSYEMRAFAPVINVYEDPVCGSGSVALARYLQEVYKFEKTTDITISEGGRLKRNGLMLASIKKEADNSTSYYIAGHATTVIDGKIKV | not failed
17 | MTLSITSNFDAGAIDVVSCERADAIRLRVRGDNRSEFAQWFYFRLTGARGERCVMTFENANDCAYPAGWRDYRAVASYDRVNWFRVPTSYDGQMLTIDHTPEFDSIHYAYFEPYSEERHSEFLGAVQQMPQASVVELGRTVEGRPMSLVVLGTPDEAGAAKKKVWIIARQHPGESMAEWFIEGLVKRLVGWGDWSGDPVARKLYDHATFYIVPNMNPDGSVHGNLRTNAAGANLNREWMEPDAERSPEVLVVRDAIHAIGCDLFFDIHGDEDLPYVFAAGSEMLPGFTEQQRVEQSAFIDSFKRASPDFQDEHGYPPGKYREDAFKLASKYIGHRFGCLSLTLEMPFKDNANLPDEHIGWNGARSASLGAAMLGAILEHVRAFA | not failed
